# PMC11309785, “Vaccine priming of rare HIV broadly neutralizing antibody precursors in non-human primates” (Science (New York, N.Y.), 2024)
# Target: T1, N332-GT5 trimer, C-terminal His-tagged (captured ligand of the SPR) (HIV-1 isolate BG505 (N332-GT5 …, stabilised))
# T1 construct: HIV-1 envelope (Env) of isolate BG505, gp120 part of the germline-targeting trimer N332-GT5, co-expressed with furin; S18, coordinates in PDB 8T4K; HIV-1 envelope (Env) of isolate BG505, gp41 ectodomain part of the trimer N332-GT5; MD65 = MD39 stabilising mutations plus V505T, V513A, V518S, L520D; also called N332-GT5 WT; source: 293F cells, co-transfected with furin, purified (HIS-TRAP, SEC); …
# Test: SPR; ProteOn XPR36, HC30M XanTec chip; His-tagged trimer (300 to 400 RU, 1 ug/mL) captured by immobilised rabbit anti-His-tag pAb, Fab flowed as analyte at 30 ul/min for 3 min, 5 min dissociation; 1x HBS-EP+ pH 7.4 with BSA 1 mg/ml; equilibrium or kinetic (Langmuir) fits; highest concentration 2x10^-5 M, approximate upper affinity limit 1.6x10^-11 M
# Details: both partners purified
row,Binder,Kd [nM]
1,"RM_N332_36 Fab (Fab, V domains shown, human Fab heavy chain constant region from the vector pFabCW; human lambda constant region from the vector pCW-CLig-hL2; Macaque variable regions on human constant regions; The deposited model may hold the Fv only; also called BG18 type I Fab with D3-41 in alternate reading frame; source: FreeStyle 293F or ExpiCHO cells, purified (CaptureSelect CH1-XL)) VH: QVTLKESGPALVKPTQTLTLTCTFSGFSLSTNYMGVDWIRQPPGKALEWLARIYWNDDKYYSTSLKSRLTISKDTSKNQVVLTMSNMDPVDTATYYCARVKLSVWGVLQFFEWSDYGLDSWGQGVVVTVSS VL: SYVLTQPPSVSVSPGQTARITCGADNIGSQSVHWYQQKSPQAPVLVISADTERPSGIPERFSGSNSGNTATLTISGVEAGDEADYYCQVWDSDSKYALFGGGTRLTVL",0.038
2,"RM_N332_32 Fab (Fab, V domains shown, human Fab heavy chain constant region from the vector pFabCW; human kappa constant region from the vector pCW-CLig-hk; Macaque variable regions on human constant regions; The deposited model may hold the Fv only; also called BG18 type I Fab with kappa light chain; source: FreeStyle 293F or ExpiCHO cells, purified (CaptureSelect CH1-XL)) VH: QLQLQESGPGLVKPSETLSLTCAVSGGSISDYCWNWIRQPPGKGLEWIGYIGGSSGSTYYNPSLKGRVTISADTSENRFSLKLSSVTAADTAVYYCARSPITVFGVVIFDEYTTGNLDLWGPGTPISISS VL: DIQMTQSPSSLSASVGDKVTITCHASQDISSWLAWYQQKPGKAPKPLIYYASSLQSGVPSRFSGSGSGTDYTLTITSLQPEDFATYYCQQYDDLPFTFGPGTKLDIK",0.081
